Source: the RNAGym collection of RNA variant scans (doi:10.1073/pnas.2313332121)
This sample holds only a part of the variants without activity.

B1: TPR 5TU (parent)
chain: GGAUCUUCUCGAUCUAACAAAAAAGACAAAUCUGCCACAAAGCUUGAGAGCAUCUUCGGAUGCAGAGGCGGCAGCCUUCGGUGGCGCGAUAGCGCCAACGUUCUCAACUAUGACACGCAAAACGCGUGCUCCGUUGAAUGGAGUUUAUCAUG

Variants of: B1
Assay: polymerase ribozyme fitness, log enrichment relative to wild type (log ratio); higher = more active; in vitro selection for triplet polymerase activity
Outline: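 For each subunit of a heterodimeric triplet polymerase ribozyme, a mutant library was built by PCR and transcribed, then taken through a single in vitro selection round in triplicate. Selection involved annealing to a biotinylated primer, the partner subunit and triplets, incubation frozen at −7 °C, gel excision of extended constructs, capture on streptavidin beads and RT-PCR. Genotypes were retained after Illumina sequencing of inputs and outputs only with ≥10 input reads and ≥1 read in each output. Fitness is defined as the logarithm of a genotype's enrichment relative to wild-type enrichment, using inverse-variance-weighted averages across replicates, with the logarithm taken to base 2.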

| Variant | polymerase ribozyme fitness (log ratio) |
| --- | --- |
| U45A A121G C131G G140U | ≤ -4.2 |
| C5G C10U C76A C87U G92A | -2.35 |
| U53A A147G | -3.69 |
| G50U A66U C69G U135C | ≤ -4.2 |
| C32U G83U G126A | -4.19 |
| C36A C96A G133A | ≤ -4.2 |
| C57A G70U G80A G83C C87U C108A | ≤ -4.2 |
| G50C A64C G80A A120C G128U | ≤ -4.2 |
| A41U A52U | -2.47 |
| C14G A106C C118A C123U | -4.16 |
| U4C A21U C57G A60G C85A A89C G94A | -2.06 |
| A24G U53A U61A G84C C125U | ≤ -4.2 |
| C72U C85G | -1.95 |
| U15G C93A U109C | ≤ -4.2 |
| C18U A142C | -0.999 |
| A29C A30U A97U C103U C116G G133A | ≤ -4.2 |
| A40G C87G C103A G117U | ≤ -4.2 |
| C18U C54A A64G G83C A119U A147C | ≤ -4.2 |
| A16G G50A A142C | -3.93 |
| C85U C87G C95G C131A U134G A147U | ≤ -4.2 |
| A29U A107C | ≤ -4.2 |

| Variant | polymerase ribozyme fitness (log ratio) |
| --- | --- |
| A12G G84A G143A A147G | -3.25 |
| G48A C57A C125U | -1.74 |
| A40U C57A G86A A110U C125A G141U | ≤ -4.2 |
| C57U G128U | -3.2 |
| C35A U44A G70C C76U C103G U145G | ≤ -4.2 |
| A21C A41U C57U A119U U134A U144A | -4.17 |
| A17C G62U C93G | -3.31 |
| C96U C131G | -2.66 |
| A19U A24C C35U C57U A66C G86U | -4.08 |
| A16G C57A G62A C96U | -1.89 |
| A22G A52G G128C | -3.48 |
| C10G C36G A47U G65U C79G C93U C99G G126C U144C U148C | ≤ -4.2 |
| A26U C96U | -1.62 |
| A47C U102G A115U A142G U148A | ≤ -4.2 |
| U33A U61A | -3.64 |
| U15G G46C C93A C95U | ≤ -4.2 |
| C38U A47C U53A A142C | -3.39 |
| G86A C87G | -3.97 |
| U31C A39C C54U A73G U90G G124A | ≤ -4.2 |
| U4C | 0.371 |
| A26C C51G G65A G74C G81U C93G A119U C132U G141C | ≤ -4.2 |

| Variant | polymerase ribozyme fitness (log ratio) |
| --- | --- |
| A64U C87U G100C U135G A150G | ≤ -4.2 |
| G50C U55A | -3.29 |
| U6A G11A A64C C72U C87U A120G C149A | ≤ -4.2 |
| A19G A49C C54A G68A C93A C95A C103U G124A | ≤ -4.2 |
| A28U C93U C118U A121G | ≤ -4.2 |
| A3U U56A | -1 |
| A24C G84A | ≤ -4.2 |
| A17U A22C A23G G25A G50C U55A C75A G80A C87U U90C C103A | ≤ -4.2 |
| U44A G117U | ≤ -4.2 |
| A28C U31G A41U G65A C85G G88U C96U C103U U135G | ≤ -4.2 |
| G50U C69U C99U | -3.41 |
| U13G C96A | -0.681 |
| A49U U53A G92U C116A | -1.33 |
| A26C C76A | -3.75 |
| A40C U53A | 0.24 |
| G141U G143A | -2.79 |
| G59C C114U G128A A142U | -2.5 |
| A37C G62U G86U G100C A107G | ≤ -4.2 |
| G81A A97U | -0.297 |
| U55C G74C | -3.64 |
| A23C C35G G58A C95A C99A C149U | ≤ -4.2 |

| Variant | polymerase ribozyme fitness (log ratio) |
| --- | --- |
| G25A G34U C35G C85G | -4.2 |
| A22U A26G A49U U102C A138G U144A | ≤ -4.2 |
| G42A G74C G83C A107U G112C | ≤ -4.2 |
| U55A C75G U77G A107U | ≤ -4.2 |
| A30U A37C G50C A91G A150G | ≤ -4.2 |
| G92U C96U A97U A115U A121U | -2.82 |
| C118G A119G | 0.312 |
| A41U U82A A142C | -2.88 |
| C118U U145A | -0.179 |
| U9G G34U C85A U139A | ≤ -4.2 |
| A28U C54U | -3.76 |
| G59C G83A C87A A137U G140U | ≤ -4.2 |
| C35G C85A C105G A113U | ≤ -4.2 |
| A28U G58U C79G G92U | ≤ -4.2 |
| A24G A26U U56A C87G C123A C132G G133U | ≤ -4.2 |
| U56G G68U G92A C93A A106U A115U A150C | ≤ -4.2 |
| A49C C79U U151G | ≤ -4.2 |
| A22C C114A | -3.5 |
| G11C G42A G88C U102C G126U | ≤ -4.2 |
| G11A G48C G92U | -0.981 |
